Numbering of substitutions follows the chain as printed.
Legend:
Type in all cases: biochemical
[1] = Product formation by washed and induced cells expressing triazine hydrolase, substrate aminoatrazine; details: 250 μM substrate, 20 ul washed and induced cells in 100 μl NH3Acetate pH 6.8, 22° C.
[2] = Product formation by washed and induced cells expressing triazine hydrolase, substrate ametryn; details: 250 μM substrate, 20 ul washed and induced cells in 100 μl NH3Acetate pH 6.8, 22° C.
[3] = Product formation by washed and induced cells expressing triazine hydrolase, substrate propazine; details: 250 μM substrate, 20 ul washed and induced cells OD600 = 3 in 100 μl 10 mM NH3Acetate pH 6.8, 37° C.
[4] = Product formation by washed and induced cells expressing triazine hydrolase, substrate N-methylatrazine; details: 250 μM substrate, 20 ul washed and induced cells in 100 μl NH3Acetate pH 6.8, 22° C.
[5] = Product formation by washed and induced cells expressing triazine hydrolase, substrate atratone; details: 250 μM substrate, 20 ul washed and induced cells in 100 μl NH3Acetate pH 6.8, 22° C.
[6] = Product formation by washed and induced cells expressing triazine hydrolase, substrate atrazine; details: 250 μM substrate, 20 ul washed and induced cells in 100 μl NH3Acetate pH 6.8, 22° C.
[7] = Product formation by washed and induced cells expressing triazine hydrolase, substrate N-methylpropazine; details: 250 μM substrate, 20 ul washed and induced cells OD600 = 3 in 100 μl 10 mM NH3Acetate pH 6.8, 37° C.
[8] = Product formation by washed and induced cells expressing triazine hydrolase, substrate prometon; details: 250 μM substrate, 20 ul washed and induced cells OD600 = 3 in 100 μl 10 mM NH3Acetate pH 6.8, 37° C.
[9] = Product formation by washed and induced cells expressing triazine hydrolase, substrate aminopropazine; details: 250 μM substrate, 20 ul washed and induced cells OD600 = 3 in 100 μl 10 mM NH3Acetate pH 6.8, 37° C.
[10] = Product formation by washed and induced cells expressing triazine hydrolase, substrate prometryn; details: 250 μM substrate, 20 ul washed and induced cells OD600 = 3 in 100 μl 10 mM NH3Acetate pH 6.8, 37° C.
[11] = High throughput mass spectrometry screen of triazine hydrolase library against about 15 triazine derivatives
[12] = Table 5, the value is the triazine substrate the library member (atzA-based variant) is active on, preferred members, not exclusive

B1: atzA: naturally occurring atrazine chlorohydrolase (atzA), GenBank #U55933 (protein, UniProt P72156 1-474, looked up)
Atrazine chlorohydrolase: MQTLSIQHGTLVTMDQYRRVLGDSWVHVQDGRIVALGVHAESVPPPADRVIDARGKVVLPGFINAHTHVNQILLRGGPSHGRQFYDWLFNVVYPGQKAMRPEDVAVAVRLYCAEAVRSGITTINENADSAIYPGNIEAAMAVYGEVGVRVVYARMFFDRMDGRIQGYVDALKARSPQVELCSIMEETAVAKDRITALSDQYHGTAGGRISVWPAPATTTAVTVEGMRWAQAFARDRAVMWTLHMAESDHDERIHGMSPAEYMECYGLLDERLQVAHCVYFDRKDVRLLHRHNVKVASQVVSNAYLGSGVAPVPEMVERGMAVGIGTDNGNSNDSVNMIGDMKFMAHIHRAVHRDADVLTPEKILEMATIDGARSLGMDHEIGSIETGKRADLILLDLRHPQTTPHHHLAATIVFQAYGNEVDTVLIDGNVVMENRRLSFLPPERELAFLEEAQSRATAILQRANMVANPAWRSL
- Product formation, substrate Aminoatrazine [1]: 0 nM/h
- Product formation, substrate Ametryn [2]: 0 nM/h
- Product formation, substrate Propazine [3]: 26 nM/h
- Product formation, substrate NMeAtrazine [4]: 0 nM/h
- Product formation, substrate Atratone [5]: 0 nM/h
- Product formation, substrate Atrazine [6]: 58899 nM/h
- Product formation, substrate NMePropazine [7]: 0 nM/h
- Product formation, substrate Prometon [8]: 0 nM/h
- Product formation, substrate Aminopropazine [9]: 0 nM/h
- Product formation, substrate Prometryn [10]: 0 nM/h

B2: 512 (protein)
chain: MQTLSIQHGTLVTMDQYRRVLGDSWVHVQDGRIVALGVHAESVPPPADRVIDARGKVVLPGFINAHTHVNQILLRGGPSHGRQLYDWLFNVVYPGQKAMRPEVAVAVRLYCAEAVRSGITTINEEADSAIYPGNIEAAMAVYGEVGVRVVYARMFFDRMDGRIQGYVDALKARSPQVELCSIMEETAVAKDRITALSDQYHGTAGGRISVWPAPATTTTVTVEGMRWAQAFARDRAVMWTLHMAESDHDERILGWSPAEYMECYGLLDERLQVAHCVYFDRKDVRLLHRHNVKVASQVVSNAYLGSGVAPVPEMVERGMAVGIGTDNNNSSDSVNMIGDMKFMAHIHRAVHRDADVLTPEKILEMATIDGARSLGMDHEIGSIETGKRADLILLDLRHPQTTPHHHLAATIVFQAYGNEVDTVLIDGNVVMENRRLSFLPPERELAFLEEAQSRATAILQRANMVANPAWRSL
- Substrate Activity ([11]; substrate(s) on which the triazine hydrolase library member shows activity, column indicates preferred embodiments and is not exclusive): propazine

B3: 61 (protein)
chain: B2 chain with L84F, V92L, E125D, N328D, S331C
- Substrate Activity [11, 12]: atratone

B4: 53 (protein)
chain: B2 chain with L84F, V92L, E125D, L253I, N328D, S331C
- Substrate Activity [11, 12]: atratone

B5: 57 (protein)
chain: B2 chain with L84F, V92L, E125D, W255G, N328D, S331C
- Substrate Activity [11, 12]: atratone
